According to patent US20080125498:

Key:
[1] = biological target: endogenous plasminogen in mouse brain slices (UniProt P20918)
[2] = biological target: T1, protease-activated receptor 1 (PAR1), mouse, endogenous in hippocampal slices and cultured astrocytes (UniProt P30558)
T1 sequence: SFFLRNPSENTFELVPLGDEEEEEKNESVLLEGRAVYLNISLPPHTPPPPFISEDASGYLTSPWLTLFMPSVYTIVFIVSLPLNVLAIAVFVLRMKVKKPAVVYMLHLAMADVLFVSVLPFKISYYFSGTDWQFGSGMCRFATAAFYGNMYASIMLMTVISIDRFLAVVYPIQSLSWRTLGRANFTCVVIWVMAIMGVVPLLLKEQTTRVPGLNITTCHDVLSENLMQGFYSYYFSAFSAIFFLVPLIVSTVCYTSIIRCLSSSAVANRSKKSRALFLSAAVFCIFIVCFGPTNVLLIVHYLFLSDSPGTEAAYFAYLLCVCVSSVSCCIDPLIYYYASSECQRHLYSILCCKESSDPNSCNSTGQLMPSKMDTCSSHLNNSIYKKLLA

[3] = biological target: NMDA receptor NR1 subunit in adult rat brain membranes (UniProt P35439)
[4] = tested on: recombinant NR1-1b subunit transiently expressed in HEK 293 cells
[5] = tested on: N-terminal myc-tagged NR1-1a

Chain of endogenous plasminogen in mouse brain slices (P20918 20-812): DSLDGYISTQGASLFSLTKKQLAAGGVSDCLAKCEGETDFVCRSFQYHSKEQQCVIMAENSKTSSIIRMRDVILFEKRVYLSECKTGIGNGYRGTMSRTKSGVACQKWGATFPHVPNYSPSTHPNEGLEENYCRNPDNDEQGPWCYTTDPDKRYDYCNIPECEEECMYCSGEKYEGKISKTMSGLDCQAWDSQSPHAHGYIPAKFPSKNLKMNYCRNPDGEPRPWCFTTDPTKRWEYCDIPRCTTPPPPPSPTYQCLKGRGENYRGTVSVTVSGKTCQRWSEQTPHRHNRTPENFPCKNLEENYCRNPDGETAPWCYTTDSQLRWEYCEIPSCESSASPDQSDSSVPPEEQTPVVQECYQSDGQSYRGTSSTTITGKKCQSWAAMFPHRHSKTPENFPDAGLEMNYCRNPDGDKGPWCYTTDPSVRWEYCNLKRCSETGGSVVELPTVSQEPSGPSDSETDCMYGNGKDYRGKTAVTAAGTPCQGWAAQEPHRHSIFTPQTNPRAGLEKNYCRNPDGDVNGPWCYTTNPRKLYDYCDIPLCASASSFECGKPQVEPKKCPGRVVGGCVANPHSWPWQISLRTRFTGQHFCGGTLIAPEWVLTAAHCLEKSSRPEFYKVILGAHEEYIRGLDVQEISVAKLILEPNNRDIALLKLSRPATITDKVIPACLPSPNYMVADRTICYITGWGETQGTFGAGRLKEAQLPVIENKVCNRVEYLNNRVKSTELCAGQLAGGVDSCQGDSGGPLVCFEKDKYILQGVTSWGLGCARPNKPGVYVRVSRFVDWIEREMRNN
Chain of tissue plasminogen activator (P00750 36-562): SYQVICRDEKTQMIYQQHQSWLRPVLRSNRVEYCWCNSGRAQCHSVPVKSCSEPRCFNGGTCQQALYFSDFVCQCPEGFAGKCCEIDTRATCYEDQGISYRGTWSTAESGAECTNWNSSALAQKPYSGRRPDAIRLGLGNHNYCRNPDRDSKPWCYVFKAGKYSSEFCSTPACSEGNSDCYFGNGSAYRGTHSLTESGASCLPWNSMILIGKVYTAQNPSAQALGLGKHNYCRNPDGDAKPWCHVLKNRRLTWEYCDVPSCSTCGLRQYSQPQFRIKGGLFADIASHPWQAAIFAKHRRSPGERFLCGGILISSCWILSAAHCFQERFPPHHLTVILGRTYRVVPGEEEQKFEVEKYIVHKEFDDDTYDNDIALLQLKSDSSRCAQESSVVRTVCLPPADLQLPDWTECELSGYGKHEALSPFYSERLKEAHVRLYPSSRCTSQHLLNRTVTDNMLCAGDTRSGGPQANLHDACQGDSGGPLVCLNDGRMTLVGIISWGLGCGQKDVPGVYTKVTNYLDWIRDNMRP

| Substance | PI hydrolysis in hippocampal slices [1] | PI hydrolysis after tPA application to hippocampal slices [2] | PI hydrolysis in hippocampal slices [2] | NR1 cleavage product in CA1 region after 15 minutes of 3 U/ml thrombin on slices [3] | maximal percent of NR1 cleaved, striatal membranes [3] | percent of NR1 cleaved, all brain regions except striatum, 1-3 micromolar thrombin [3] | percent of NR1 cleaved, cerebellar, cortical and brainstem membranes, 300 nM thrombin [3] | percent of NR1 cleaved, hippocampal membranes, 30 nM thrombin [3] | percent of NR1 cleaved, striatal membranes, 30 nM thrombin [3] | proteolysis of NR1 (immunoblot) [3] | proteolysis of recombinant NR1-1b (immunoblot) [4] | proteolysis of myc-tagged NR1-1a (immunoblot) [5] |
| --- | --- | --- | --- | --- | --- | --- | --- | --- | --- | --- | --- | --- |
| tissue plasminogen activator | application of tPA did not increase PI hydrolysis in plasminogen-deficient mice |  |  |  |  |  |  |  |  |  |  |  |
| plasmin |  | Application of tPA to wild type hippocampal slices significantly increased PI hydrolysis compared with application to PAR1-/-hippocampal slices | Both thrombin and plasmin increased PI hydrolysis in wild type hippocampus, but not in the hippocampus of PAR1-/- mice |  |  |  |  |  |  |  |  |  |
| alpha-thrombin |  |  | Both thrombin and plasmin increased PI hydrolysis in wild type hippocampus, but not in the hippocampus of PAR1-/- mice | no NR1 cleavage product was observed in immunoblots of membranes obtained from the CA1 region microdissected immediately following the experiment | the maximal observed cleavage of 52% suggests a thrombin resistant population of NR1 subunits exists | 1-3 micromolar thrombin cleaved 100% or subunits in all brain regions except striatum | cerebellar (n=7), cortical (n=5), and brainstem (n=5) NR1 subunits were insensitive to cleavage by 300 nM thrombin (30 U/ml) | 30 nM thrombin (3 U/ml) cleaved 20% of the NR1 subunit in hippocampal membranes (n=7) | 50% of NR1 in striatal membranes (n=10) | Incubation of brain membranes with thrombin for 1 hour at 37 °C resulted in the appearance of a new band that was 12 kD (n=10) lower in molecular weight than the parent band | 10-1000 U/ml of thrombin cleaved both homomeric NR1-1b receptors (n=9/10 experiments) and heteromeric NR1-1b/NR2B receptors (n=6/6 experiments) | Thrombin induced a similar shift in molecular weight for N-terminal myc-tagged NR1 as observed for the recombinant and native receptors detected with mAb54.1 |
